Assay results taken from the supplement of paper PMC12042874.
± gives the uncertainty stated by the source.

Assay: amyloid nucleation score (Sup35N fusion, yeast selection) (log enrichment); library NNK3; higher = more nucleation; inactive = no reads after selection
How it was run: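 Nucleation score: DiMSum log enrichment of output over input reads, centred on the mode score of non-aggregating sequences. Only sequences with at least 100 input reads were kept. Reads came from Illumina sequencing of plasmid inserts before and after 7 days of growth at 30°C without adenine and uracil, in psi-negative yeast expressing Sup35N fused to peptides of 20 random codons after 24 hours of induction with 100 μM copper sulfate.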

Row | Substance | amyloid nucleation score
1 | NLPHRLVTNRMCGAGGFGII | inactive
2 | NLPLYPSGFFKSMIRNRVLT | 1.66 ± 0.083
3 | NLRHYTVDMLCSNYEYVIVY | inactive
4 | NLRKKWFWAYNPSYETSPLV | inactive
5 | NLSNLLNLVRLVRGRLGNAA | inactive
6 | NLSVGRALTWHPSPWDQQIW | inactive
7 | NLTGCMDLC | 0.853 ± 0.19
8 | NLTINVVAVQFLFMTTGY | 2.63 ± 0.08
9 | NLYMDEHHFKAFNGCTNQLI | inactive
10 | NLYRRYHVHSKRALSIYSTP | -0.033 ± 0.23
11 | NMDNHTPG | inactive
12 | NMDSAWKCPHPYKSLTIVCF | inactive
13 | NMFSGVG | inactive
14 | NMGALIRSRQVEVSHKRVSG | inactive
15 | NMIFA | inactive
16 | NMMPREPDTFMGYSGRRLCV | -0.284 ± 1.1
17 | NMRGEFQTLANWVWLLQRVL | inactive
18 | NMSWNVCVRFK | 1.87 ± 0.068
19 | NMVHCVLCIAHEHLKVFVMC | inactive
20 | NMVIV | inactive
21 | NNDIVKGSPPPWVMFLVALH | inactive
22 | NNERITWERDIRSRCFPVLV | inactive

Row | Substance | amyloid nucleation score
23 | NNGSP | inactive
24 | NNGSSRYMWSSYFLVGY | inactive
25 | NNIFWMRFMFDPWRR | 1.04 ± 0.21
26 | NNLRNIPE | inactive
27 | NNLSNWIRKVCNSYYHPTYQ | inactive
28 | NNQCKACSLWWQSSYPDKMF | inactive
29 | NNTCMNGAVLWSEMAKTGGC | inactive
30 | NPCHCQRRINFVL | inactive
31 | NPFLSCKNYGICSYVGTNVF | 1.09 ± 0.096
32 | NPSTLYCGSLHSLVLRSFLI | inactive
33 | NPVGT | inactive
34 | NQTGSSRTSCCMDRWLMYIA | inactive
35 | NRALNW | inactive
36 | NRFVDLGGQHDTHCVRGYGL | inactive
37 | NRFVNLSNRMVYDFRYRMAV | inactive
38 | NRGLWRM | inactive
39 | NRGSGRSMYMRSSFYSESGS | 0.522 ± 0.28
40 | NRLRV | inactive
41 | NRNATSCGKPAFNKWNYFCQ | inactive
42 | NRRWILRRLLPSVNLSE | inactive
43 | NRSFSNGCVIRLELFNNVYA | inactive
44 | NRSLEVNELI | -0.412 ± 0.68

Row | Substance | amyloid nucleation score
45 | NRSTGVKSQGIDFLLSCFLV | inactive
46 | NRSTLYSSLCGYRVRENISW | 1.4 ± 0.097
47 | NRTWIGIIHLFGLYYGVCGG | 0.621 ± 0.2
48 | NRWEFVHLLSYWNKSCDLCC | inactive
49 | NRYHRIIRDAIRKDYTVCSL | inactive
50 | NSASSFCPRRLCYGRRQEDL | inactive
51 | NSDLIRVNRSVMYAKETCEV | inactive
52 | NSGLSG | inactive
53 | NSIIGTVDGKSGSNRVRSP | inactive
54 | NSKLRLFWRTGMVHSVVDVS | inactive
55 | NSKNFIMSISRLGYLASF | inactive
56 | NSLNKGKFHWVNIGTSSLQG | inactive
57 | NSLWSYMGTVLFNPFWLVWR | inactive
58 | NSPTYYPHSFLMTYKALSFT | inactive
59 | NSRHLDIFRMFDNFSVCHQP | inactive
60 | NSSAYFFDAAGSTRLDQASY | inactive
61 | NSSLCYFENLTTAIFVMEWI | inactive
62 | NSTINAPRLTRPGGPCSRKV | inactive
63 | NSWIMYRGGKDDDFVVPWAA | inactive
64 | NTCSLFSKISDNIQRSAHAR | inactive
